In US20200182883A1 (UNIVERSITY OF MARYLAND BALTIMORE, published 2020):

What was measured:
[1] = target: T1, HIV-1 IIIB p24 recombinant protein (HIV-1 IIIB); assay: SPR, mAb immobilized on a Protein A chip, 0-200 nM p24, room temperature
T1 construct: domain: p24
Protocol: Surface Plasmon Resonance (SPR) analysis of anti-p24 mAbs. […] Surface Plasmon Resonance (SPR) analysis of each mAb binding to p24. Sensorgrams were obtained at room temperature for each mAb immobilized on a Protein A chip with 0-200 nM concentrations of p24 passed over the chip.

[2] = target: T2, YU2 gp120 core, from which V1, V2, and V3 have been deleted (HIV-1 YU2, UniProt P35961 82-479); assay: ELISA, background-subtracted OD, mAb titrated
T2 construct: domain: gp120 core; also called YU2 core; YU2-core

[3] = target: T2, YU2 gp120 core, from which V1, V2, and …; assay: ELISA, graded

B1: N60P53 (antibody, V domains shown)
VH: QVQLQESGPGLVKPSQTLSLTCTVSGGSINSGGYFWTWIRQEPGKGLEWIGHVHSSGTTSYNPSLKSRLTISLDSSKNQFSLNLTSVTAADTAVYYCASQGRLGIGDYWGQGALVVVSS
VL: DIQMTQSPSSLSASVGDRVTITCRASQGVSHLVNWYQQKPGKAPKPLIYTVSSLHSGVPSRISGSGSETEFTLTISSLQPEDFATYYCQQTYSSPRTFGQGTRVDLK
notes: Anti-p24 mAb; they may be variable regions only; captured on Protein A chip in SPR; also called N6053
Kd [1]: 0.0399 nM | koff [1]: 3.81e-05 s⁻¹ | kon [1]: 954000 M⁻¹ s⁻¹

B2: N60P23 (antibody, V domains shown)
VH: HVQLVQSGTEVKRPGASVRISCASSGYTFSNYFIHWVRQAPGRGLEWMGWMNPLRGAVNYSGKFQGRVTMTRDIYTETSFMVLSGLRSDDTAIYFCARGRDGYEYGFNPWGQGTLVTVSS
VL: CYVQTQSPSTLYASVGDRVTITCRSSQSGWKAWYQQKPGKAPKLLIYKSSTLESGVPSRFSGSDSGTEFNLTITSLQPDDFATYFCQHFETFGQGTRVEVR
notes: they may be variable regions only; Kappa light chain
binding result [2]: no binding (tested: 0.8 ug/ml)

B3: N60P2.1 (antibody, V domains shown)
VH: RAQLVQSGPEVKKPGASVRISCAASGYTFVDSFIHWLRQAPGQGLEWIGWINPLRGGVNYSGRFQGRVAMTRNTFTETVYMDINGLTPDDTATYFCVRAPDSYDRGYDAWGQGTRVIVTS
VL: YIQVTQSPSTLSASIGDTVTITCRASEGWLAWYQQKPGKAPKLIIYKTSTLERGVPSRFSGSVSGADFTLTISGLQSDDFATYYCQKFEFFGQGTVVDMK
notes: they may be variable regions only
binding result [3]: no binding

B4: N60P25.1 (antibody, V domains shown)
VH: QIELVQSGTEVKRPGASVRISCASSGYRFTNYFIHWVRQAPGRGLEWMGWMNPLHGGVNYSGRFQGRVTMTRDIYTETSFMVLSGLTSDDTAIYFCTRGRDGYDDGFHPWGQGTLVTVSA
VL: YVQSQSPSTLYASVGDKITITCRSSQSGWKAWYQQKPGKAPKLLIYKSSILETGVPSRFSGSDSGTEFTLTISSLQPDDFATYYCQHFETFGQGTRVQVR
notes: Kappa light chain; also called N6025.1
binding result [3]: no binding
